For one molecule, Kd results are on record in PMC11750923, “High-affinity ssDNA aptamer and chemiluminescent aptasensor for TIMP-1 detection in human serum”.

In this data set the target is TIMP-1 (tissue inhibitor of metalloproteinases 1) (human, UniProt P01033 24-207). The data set can be described thus: BLI; DPBS + 0.025% Tween 20; kon 1.30e6 M-1 s-1, koff 5.36e-4 s-1; 1:1 with mass transport; DPBS (138 mM NaCl, 2.67 mM KCl, 8.1 mM Na2HPO4, 1.47 mM KH2PO4, 1 mM CaCl2, 0.5 mM MgCl2); BLI with 0.025% Tween 20; pH and temperature not stated. The settings on record: protein: commercial; tags: His; label: biotin (BLI); hairpin. On the technique in general: Biolayer interferometry detects binding as a change in optical thickness at a sensor tip.
Sequence of TIMP-1 (tissue inhibitor of metalloproteinases 1) (P01033 24-207): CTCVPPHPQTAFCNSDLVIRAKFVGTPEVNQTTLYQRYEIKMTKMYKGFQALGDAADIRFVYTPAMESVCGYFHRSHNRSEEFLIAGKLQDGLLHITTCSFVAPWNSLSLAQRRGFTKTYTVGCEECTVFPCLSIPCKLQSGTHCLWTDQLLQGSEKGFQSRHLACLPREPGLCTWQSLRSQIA

B1: Apt-4 (ssDNA)
DNA: CACGCATAGCGCCCCAACCCCAGTCGATGAAATTGCGTCGCGGGTGCCTATGCGTG
For the molecule B1, the Kd came to 0.41 nM.

For orientation: Kd means the constant that tells how readily two partners part at equilibrium.
